Measurements reported in a protein production outcome set (Wang et al. 2014).

Experiment: label from the status in PepcDB records

Sequence | protein production
MLRYSFRSIKRNFASSLLLVGALVAIFVASPLSFSMLSSIQAEVDANIKQYARGSYDLLIRPIGTQTAVETTLGVVEENYLALGEGGISLNEWETIKALDGVEVAAPVASLGYFAGETHTVAVEFPNNSSFIEGRFQTSDGLHTYPLQAGGSYYVLEQEGYYYGYEYVQQGNEEIPGSGGPPFFSMPVTYHLIVGIDQQEEEKLTGFNFSALNNSIPEGFRFYFDLDVERHIKIIYLKDATTPLTVQVDVAPIDWETADTERLKDELGLTYDEPLFISEQFPSLFTQFQDRHIGPIETYTFDLSEHMPPFSYDPVSLDYDGSMHEPIENAYGVSESSRFYQASPIDYDIQAGGRLKVKQVGDYEGIPIYRTIQEQGGAAYELHGIGKIPFLLYPVGHFTTAEYEHSLSASPLGIYQQAPSVLSDGTMLHETIAPGSFVNAPAHGLMALEDAAFIKGDAPIDAIRIRVAGITAYDQEAVDKMSQVATEIAKLGDYQIDVIAGASPAPMTMDVEGIGEVVQPWTSLGAAATIRDGWNGTNVLIAGLFLFVSISYLANRFHFRRHTKKEEQELLLDLGWKKRHIRWLYLMENSSLIFLSAAIASLILLAYIWLYQADWFILIFFVAVVVLTFLFSLIYVSMMRGVQKISFRRLKGQTVWIRNLFYYRRLLTLSIIQLASVALLLAFVVSSIAATIAQTGGTYLGVYINDAVFIPLVSIMVAALFLAVLTVGESTSAFLLLRKEELQTLRDIGWRIKDVHRLCLKESAVWTTGAIMGGVVISLLTVSVFYSLSLSFLLFAGVAVVLLSSIAIVTAGGMIRSSLRKMA | failed
MLSERAAQMVIFSALIKHKNFTVAAKSLGVSVSHVSKQLSQLEESLGIKLVQRTTRSFTPTEAGKTFYHHCEQVVQAVSSATLEMESQRDEVAGLVRLGLSQSFGTLHIIPAIQELRELYPQLQVEVHLFDYKVDMLAEGLDLWVTNNEHLPEGYIAQRLTDCQFVVAASPDYLLKYDTPTEPNDLSLHNCLIYRSWERDYTGWAFTKGQQELNVKVSGNYSVDLAEAVRDAAIAGWGIAYLATYLLGDEFRTGKLIQLLPDWKASQSMPFYAVYPSRQHMPKKISAVINFIKQKIGNPCHWDQRLAPYISIPK | failed
MLSHHPSLHFLSKLSTLSLQRNQEKQALVEELEERIELLNRLETTLSKTLNCFPEELVTFLKNNDSVTSLAEFAAECNVDPLRDTQTELLIAASQKLERWWQVEKLVEEEKKRNYEAEKLLKDFEAFKKDLETVITGFKAEQSSATQASVDQEKKALEKLKKAFESYEANSSCQPVDVTHEEVVELGKKVTLLEAQVIEEQLQLDTYQMLPQDPVLARIVLDEAKEKLKEFSAERDSILRNMKFV | failed
MLSIFYWLLAIFLINLGIFIFVLTHERRSMWAGLTLTSTLMFLAFLAIDALIIIEAQFPQQHQIIANLLLLASVGVALFILVFVFLLIIIFLYNGIKILIKEGTKWTNFLSLGTGIAIILLIFAYPVLGRSTSAPWFRFIYLFLSMSIFYIIFIMVMYTLTSWLNLININTKKLNYIVVLGAGLLGKKVTPLLASRINRGIEIYHKNPDSKLIMSGGQGPDEEIPESHAMAAYAEEHGVPKSDIIIEDRSKTTNQNLKFSHQLMKPNSTFCIVTNSYHVYRALVLAKRQGLQCIGYGAKTKWYFTLNAFIREFIAYLVITKKMQCSIIGSLAVINIIFAALYYASTQFFS | failed
MLSIKANHFMPIVRLKENEPFEAALRRFKRTIEKTGLLTELRSREFYEKPTAERKRKHAAAVKRHYKRIRSQQLPPRLYLEHHHHHH | failed
MLSIKQLSYALAVSKTLHFRKAADLCHVRQSTLSTGVSELERQLGIKIFERDNKKVLVTPLGREVLDKASNIMLQLEDMAHLDHSCGEP | failed
MLSKFIKTTLATSLLITLSACSNLKSPVPPAKKADQEKLYESTKNYNALIAMYRADLKHFKDPMTQFKLAKSYYHIGDSKSSVLYLKPLRFTKQPFNNEIELLYIRNLIQLGKYQEAQTVATDLIKMSPQNSEAYNLRGISSAQQGELAKAEQDMNKARELFINDVVAINNIAMLNILNNDYRNAVNLLLPQYLNGSKDSRLIHNLVFALVKSGDIDYATDIIRKESLYASPEDLINALKNTEKAPKVGR | failed
MLSKPMELLRPSKGMINVHPIQRGGILTEEARKVLLEWGDGYSMCDICLEGRVDLLDKPPVKRFKEEVAEFLGMDEVRFTAGARHAKFVAMSGFKGALVVDSLAHYTTYIAAELNGLRVYEVPNTGYPEFRIEAESYTDVFEKVKEETGDYPAVALLTHADYKYGNLADAKKVAEICRDYGIPLILNTAYTSGIMEVSGRETGCDFIVASGHKSWAATAPIGILATTFEFAERVFRVSEVRGNWSGRAFTKKEVALFGCSPVYGLPLVTLMASFPVVKERVKRWKEEVEKARWFVEEMEKIEGVMLLGERPKNHTLMNFETPSFNLIAKKHRRKGYFLYHELKERGIFGVQPGMTRNVKLNVYGLSWEEVERVAEAFKEIAEKYGLEVED | failed
MLSLKKSLNPPSSFGWSDPDPCKWTHIVCTGTKRVTRIQIGHSGLQGTLSPDLRNLSELERLELQWNNISGPVPSLSGLASLQVLMLSNNNFDSIPSDVFQGLTSLQSVEIDNNPFKSWEIPESLRNASALQNFSANSANVSGSLPGFLGPDEFPGLSILHLAFNNLEGELPMSLAGSQVQSLWLNGQKLTGDITVLQNMTGLKEVWLHSNKFSGPLPDFSGLKELESLSLRDNSFTGPVPASLLSLESLKVVNLTNNHLQGPVPVFKSSVSVDLDKDSNSFCLSSPGECDPRVKSLLLIASSFDYPPRLAESWKGNDPCTNWIGIACSNGNITVISLEKMELTGTISPEFGAIKSLQRIILGINNLTGMIPQELTTLPNLKTLDVSSNKLFGKVPGFRSNVVVNTNGNPDIGKDKSSLSSPGSSSPSGGSGSGINGDKDRRGMKSSTFIGIIVGSVLGGLLSIFLIGLLVFCWYKKRQKRFSGSESSNAVVVHPRHSGSDNESVKITVAGSSVSVGGISDTYTLPGTSEVGDNIQMVEAGNMLISIQVLRSVTNNFSSDNILGSGGFGVVYKGELHDGTKIAVKRMENGVIAGKGFAEFKSEIAVLTKVRHRHLVTLLGYCLDGNEKLLVYEYMPQGTLSRHLFEWSEEGLKPLLWKQRLTLALDVARGVEYLHGLAHQSFIHRDLKPSNILLGDDMRAKVADFGLVRLAPEGKGSIETRIAGTFGYLAPEYAVTGRVTTKVDVYSFGVILMELITGRKSLDESQPEESIHLVSWFKRMYINKEASFKKAIDTTIDLDEETLASVHTVAELAGHCCAREPYQRPDMGHAVNILSSLVELWKPSDQNPEDIYGIDLDMSLPQALKKWQAYEGRSDLESSTSSLLPSLDNTQMSIPTRPYGFAESFTSVDGR | not failed
MLSLLISVKKLFSSFLGILKKEDTRALFFLLATTLLSGTIFYSTVEKLSPLDSLYLSFMTLTTIGYGDVHPVTDLGKIFTMIYATVGLGIMAMFISVVAKSYLYSKQSHHHHHHKNKEHSAEKSSEK | failed
MLSLLLILPVIGALIIGFFPGNIPAKQLRQITEVFAVLTLVWSLLVLFKFDVTDPQFQFQEYLPWIPQLGLNYSLAIDGLSLPLVILNNLLTGVAIYSIGPNVNRSRLYYGLILLINAGISGALLAQNLLLFIVFYELELIPFYLMIAIWGGEKRGYASMKFLLYTAFSGLLVLAAFLGMSLLSGSHSFDYNPEITQTFTESAQTILLILILLGFGIKIPLVPLHTWLPDAYTEASPATAILLGGILAKLGTYGIIRFGLQLFPQTWAQFAPVLAIIGTVTVLYGALSAIAQKDIKRMVAYSSIGHMGYILVAAAAGTELSVLGAVAQMVSHGLILALLFHLVGIVERKAGTRDLDVLNGLMNPIRGLPLTSALLITGGMASAGIPGLVGFAAEFIVFQGSFPTFPIPTLLCILASGLTAVYFVILLNRTCFGKLDNQRAYYPKVLASEMIPALVLTAIIFFLGVQPNYLVHWTQTTTNEMIAQLPHETSAIEQLAQGVTLP | failed
MLSRLDQRSGGRSPIRAVRTRNSAMRTSRRAIVAFVLGVSALAVPALAFEGAPVNQKDATIPVVTTLPGAAGAVRSKVSPATQETSLSALQYAAEGGHPIAQWKLGRMYANGDGVAQDDVRAFEYFSRIANAHAEDSPSAPQAQIVANAFVALGRYYLSGIPNSKIKPDQDRAREMFSYAASYFGNADAQYDLARLYLKTPDASREDFRYGARWLGLAAQKGQHEAQALLGQMLFNGDRLPRQAARGLMWLTLARDSAGSEETWIKESYNRAFAKASDDDRAMCLQMLEQWVQGRRE | failed
MLSRLRHRLLAVAAAAGLTGALLSFGAAPPADAAVPATIPLKITNNSARGDAVHIYNLGTSLTTGQQGWADENGTFHAWPAGGNPPTPAPDASIPGPAAGQTKTIRIPKLSGRIYFSYGQKLDFRLTTGGLVQPAVQNPSDPNRNILFNWSEYTLNDGGLWLNSTQVDMFSAPYTVGVQRADGGVTSAGQLKAGGYRGVFDALRAQPGWGGLIQTRPDGTVLRALAPLYGVETGALPASVMDDYINRVWQKYTTTTLTVTPFGDRPDTKYFGRVSGNVMNFTNTSGAVVTSFQKPDASSVFGCHRLLDAPNDQVRGPISRTLCAGFNRSTLLSNPNQPDPSAANFYRDPVTNHYARIIHERMADGKAYAFAFDDVGNHESLVHDGNPAEARLTLAPLDLEHHHHHH | not failed
MLSTMQPTLATNYTTIPCYQLCYQHYATNLAPIIRSTGSMILNYAIIRLSLQQNLCYRKTCVRDTAQYDPPCNKIYTTGLCCSRTYKTLQAFFLDMSETPQKLREEAVKYFNETLDLMQKGENAEALESLRKAESSAQKAEDGPILFHILKVRGQLLQSLDMLEEALETYAFSLIMSEKLLSEDPENKLYTDTLHLNLNNLGNLGNAFQRMGNFPSSKQAYEIGIEICQNLLNSYPENEFYRMYAGNTLNNLGELLFTMGEPEEAKEKYEEALKTYSLLLKNSPEKPEYLSDTAMTLNNLGNLYSEKGQEAEAKENFEKALEILKKRSEKEPGNEKLREEIRITQEKLEAI | failed
MLSVSWEYNFSFKKLNVPSFSVCRMLCGKLQNPLDHKKDEASHVKHASQGDVPFSGPLQVSKSNSFAWAKREKDDVCVRVHNRSLSRGYIPSLSGHSPAFNGKSDVESKINKDEKEDKTDSRGEESYEMVKRSMLKQWRQLERPDSFGASDEYHSQELSLGLYQRDEMAKKMGNNLVRP | failed
MLSVVSPNRSTARAARTPFWRRAAVGLCLLGVAMSGPLAAQDPAQVNTFIGSKDDGNTYPGASAPFGLIQVSPIGAHYAGWRYDDPSIRGFGHSFLSGAGCWEQGGQVSVLPVTGRIGPGGDFDTNDAKAFDQKRYAARYTHDGEVGQAGYYKVRLTDYGGIDAEASALTRAATERYTFAPGADTGHVLVNVAQANDRHVVIGSQLQIVGDRVVEGKLTTQSFCGGHEYTTWFRLEFDRPFTAHGVWGEEGGVPGARHGMGGELKPNGAWLSFPLGKDKNARAVTVVSAISHVDAQGARSNLRADGMQGGKLLSLEQMRQRAQNGWRNALASMQVEGASNDDRSVAYTALYHALLQPLTGSDADGRYRGYDDAIHRADGWTYYEYFSLWDTYRSQNQLLALLQPTRARDIGRSLLAIQQQGGWLPRWGYANFDTNIMTGDPVTPFLVDLWRFGALQGNEAEAYAALRQNAFGQPPINSRHAGRSGNANYLANGFVQYDRAFPSKGMDVDPHHGGSATLEYALADCALAQMAQALGHGEDAAQLRKRGGNWHRVWDADVRDAETGFAGFPRPRLEDGSWYAPSDDHYSPRSEHGFHEGTAWQYQWLVQQDIPGMLQAMHGSQQAGKRLDAFFAYDDLLKDPLTAARTHWVVGPYSYYNQYRYNPNNEPDLHAPWMYTLIGQPWKTATVVRAAQQLFTNAPNGVTGNDDLGTMSAWYLFSALGLYPAVPGSGQFLLHAPRFKRVTLNLGNGKRLRIDAPGADGRALQYVDNVRWNGKAQPQVFLDWAQLQQGGTLAFALTKQAPTQGWGTQADALPASFCATPQAQ | failed
